Source: patent publication US20140056903A1 (Regeneron, published 2014)

Columns and labels:
[1] = biological target: T1, human GFRα3 expressed with a C-terminal myc-myc-hexahistidine tag (human, UniProt O60609 32-374, biotinylated (sites not given) in ELISA format 2 and in the Octet cross-competition; not in SPR); assay: Octet RED384; 25 µg/mL first antibody on streptavidin-captured biotin-hGFRα3-mmH
T1 construct: also called hGFRα3-mmh; hGFRα3-mmH
Description: (§1) A cross-competition assay was conducted to assess the ability of select antibodies to compete with one another for binding to human GFRα3 using an Octet RED384 biosensor (Fortebio Inc.). The entire experiment was performed at 25° C. with the flow rate of 1000 rpm in Octet HBST buffer (0.01 M HEPES pH7.4, 0.15M NaCl, 3 mM EDTA, 0.05% v/v Surfactant P20, 0.1 mg/mL BSA). To assess whether 2 antibodies were able to compete with one another for binding to their respective epitopes on biotinylated recombinant human GFRα3 expressed with a C-terminal myc-myc-hexahistidine tag (biotin-hGFRα3-mmH; SEQ ID:370), around ˜1.2 nm of biotin-hGFRα3-mmH was first captured onto streptavidin-coated Octet sensor tips (Fortebio Inc, #18-5019) by submerging the tips for 1 minute into a 10 μg/mL solution of biotin-hGFRα3-mmH. The antigen coated sensor tips were then placed into wells containing 25 μg/mL solution of a first anti-GFRα3 monoclonal antibody for 4 minutes to saturate the biotin-hGFRα3-mmH surface. The sensor tips were then subsequently dipped into wells containing 25 μ/mL solution of a second anti-GFRα3 monoclonal antibody. The sensor tips were washed in Octet HBST buffer in between every step of the experiment. The real-time binding response was monitored during the course of the experiment and the binding response at the end of every step was recorded as shown in FIG. 9. The response of mAb-2 binding to biotin-hGFRα3-mmH pre-complexed with the first antibody was compared and competitive/non-competitive behavior of different anti-GFRα3 monoclonal antibodies was determined.

[2] = biological target: T1, human GFRα3 expressed with a C-terminal …; assay: Octet cross-competition; biotin-hGFRα3-mmH pre-saturated with first antibody H4H2243N2
Description: as §1

[3] = biological target: T1, human GFRα3 expressed with a C-terminal …; assay: Octet cross-competition; biotin-hGFRα3-mmH pre-saturated with first antibody H4H2350P
Description: as §1

[4] = biological target: T1, human GFRα3 expressed with a C-terminal …; assay: Octet cross-competition; biotin-hGFRα3-mmH pre-saturated with first antibody H4H2342P
Description: as §1

[5] = biological target: T1, human GFRα3 expressed with a C-terminal …; assay: Octet cross-competition; biotin-hGFRα3-mmH pre-saturated with first antibody H4H2295S
Description: as §1

[6] = biological target: T1, human GFRα3 expressed with a C-terminal …; assay: Octet cross-competition; biotin-hGFRα3-mmH pre-saturated with first antibody H4H2291S
Description: as §1

[7] = biological target: T1, human GFRα3 expressed with a C-terminal …; assay: Octet cross-competition; biotin-hGFRα3-mmH pre-saturated with first antibody H4H2355S
Description: as §1

[8] = biological target: T1, human GFRα3 expressed with a C-terminal …; assay: blocking ELISA 2, biotin-hGFRα3-mmH to coated hARTEMIN-mmH + hRET-10His
Description: The equilibrated sample solutions were then transferred to the hARTEMIN-mmH-coated plate. […] Absorbance was recorded at 450 nm on a Victor X5 plate reader (Perkin Elmer) to determine the amount of free hGFRα3-hFc in the pre-equilibrated hGFRα3-hFc-antibody solutions that was able to bind to the plate coated with hARTEMIN-mmH. IC₅₀ values, defined as the concentration of antibody required to reduce the signal from a constant concentration of hGFRα3-hFc by 50%, were calculated from the data using Prism software from GraphPad. The absorbance measured at the constant amount of 120 pM hGFRα3-hFc in the absence of anti-GFRα3 antibody is defined as 0% blocking and the absorbance with no added hGFRα3-hFc is defined as 100% blocking. The observed absorbance in the wells containing the highest antibody concentration was used to calculate the maximum blocking percent shown in the table.
In the second ELISA format, the plates, samples and data were processed similarly as for the first format except both hARTEMIN-mmH and human RET with a C-terminal 10 histidine tag (hRET-10His; R&D Systems, #1168-CR/CF) were coated for the blocking ELISA experiment. The 96-well microtiter plates were coated with a mixture of 1.2 ug/ml hARTEMIN-mmH and 6.9 ug/ml hRET-10His proteins in PBS overnight at 4° C. and then blocked with a solution of 0.5% (w/v) BSA. A constant amount of biotinylated human GFRα3 with a C-terminal myc-myc-hexahistidine tag (biotin-hGFRα3-mmH; SEQ ID:370) at 1 nM was pre-mixed with varied amounts of anti-GFRα3 antibodies, ranging from 0 to ˜100 nM in serial dilutions, followed by a 1 hour incubation at RT to allow antibody-biotin-hGFRα3-mmH binding to reach equilibrium. The equilibrated samples were then transferred to the coated plate. After 1 hour of binding, the plate was washed, then the bound biotin-hGFRα3-mmH was detected using HRP conjugated streptavidin (Pierce, #N200), and colorimetric signals were developed using TMB HRP substrates.

[9] = biological target: T1, human GFRα3 expressed with a C-terminal …; assay: Octet cross-competition; biotin-hGFRα3-mmH pre-saturated with first antibody H4H2236N3
Description: as §1

B1: H4H2292S (antibody, human IgG4, V domains shown)
VH: EVQLVESGGGVVQPGRSLRLSCAASGFTFSSYGMHWVRQAPGKGLEWVSFIWYDGSNKYYADSVKGRFTISRDNSKNTLYLQMNSLTAEDTAVYYCARRGILTGTTAFDIWGQGTMVTVSS
VL: DIQMTQSPSSLSASVGDRVTITCRASQSISSYLNWYQQKPGKAPKLLIYAASSLQSGVPSRFSGSGSGTDFTLTIRSLIPEDFATYYCQQTYNTPFTFGPGTKVEIK
notes: human IgG4 Fc (H4H)
Amount of Antibody 1 bound (nm) [1]: 2.82 nm | binding response of second antibody (nm) [2]: 1.7 nm | binding response of second antibody (nm) [3]: 1.74 nm | binding response of second antibody (nm) [4]: 1.85 nm | binding response of second antibody (nm) [5]: 1.8 nm | binding response of second antibody (nm) [6]: 1.94 nm | binding response of second antibody (nm) [7]: 1.92 nm | % max blocking [8]: 100% | IC50 [8]: 1.76 nM | binding response of second antibody (nm) [9]: 1.81 nm

B2: H4H2212N (antibody, human IgG4, V domains shown)
VH: EVQLLESGGGLVQPGGSLRLSCAASGFTFSSYAMSWVRQGPGKGLEWVSGISGSGGSTYNADSVKGRFTISRDNSKNTLYLQMNSLRAEDTAVYYCAKDSGTYWYYFDYWGQGILVTVSS
VL: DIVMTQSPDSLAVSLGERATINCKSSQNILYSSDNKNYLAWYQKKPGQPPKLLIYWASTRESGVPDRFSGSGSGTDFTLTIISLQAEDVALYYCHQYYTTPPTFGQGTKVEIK
notes: human IgG4 Fc (H4H)
Amount of Antibody 1 bound (nm) [1]: 2.32 nm | binding response of second antibody (nm) [2]: 0.22 nm | binding response of second antibody (nm) [3]: 1.57 nm | binding response of second antibody (nm) [4]: 1.76 nm | binding response of second antibody (nm) [5]: 1.81 nm | binding response of second antibody (nm) [6]: 1.96 nm | binding response of second antibody (nm) [7]: 1.95 nm | % max blocking [8]: 99% | IC50 [8]: 0.403 nM | binding response of second antibody (nm) [9]: 1.79 nm

B3: H4H2243N2 (antibody, human IgG4, V domains shown)
VH: QVQLVQSGAEVKKPGASVKVSCKASGYTFTSYGIIWVRQAPGQGLEWMGWISGYNGNTNYAQNLQGRVTMTTDTSTTTAYMELRSLRSDDTAVYYCARWGIATRPYYYYGMDVWGQGTTVTVSS
VL: DIQMTQSPSSLSASVGDRVTITCRASQDITNYLAWFQQKPGKAPKSLIYAASSLQSGVPSKFSGSGSGTDFTLTISSLQPEDFATYYCQQYNSYPPTFGPGTKVDIK
notes: human IgG4 Fc (H4H)
Amount of Antibody 1 bound (nm) [1]: 2.42 nm | binding response of second antibody (nm) [2]: 0.06 nm | binding response of second antibody (nm) [3]: 1.72 nm | binding response of second antibody (nm) [4]: 0.11 nm | binding response of second antibody (nm) [5]: 0.01 nm | binding response of second antibody (nm) [6]: 0 nm | binding response of second antibody (nm) [7]: 0.09 nm | % max blocking [8]: 95% | IC50 [8]: 1.12 nM | binding response of second antibody (nm) [9]: 0.02 nm

B4: H4H2352S (antibody, human IgG4, V domains shown)
VH: EVQLVQSGAEVKKPGASVKVSCKASGYTFTNYGITWVRQAPGQGLEWMGWISAYNGNTGYAQKFQGRVTMTTDTSTSTAYMELRSLRSDDTAVYYCAREDYDFWRAFDIWGQGTMVTVSS
VL: EIVLTQSPGTLSLSPGERATLSCRASQSVSSTYLAWLQQKPGQAPRLLIYGASSRATGIPDRFSGSGSGTDFTLTINRLEPEDFAVYYCQQYAYSPYTFGQGTKLEIK
notes: human IgG4 Fc (H4H); also called H4H2352S-1
Amount of Antibody 1 bound (nm) [1]: 2.74 nm | binding response of second antibody (nm) [2]: 0.46 nm | binding response of second antibody (nm) [3]: 2.06 nm | binding response of second antibody (nm) [4]: 1.72 nm | binding response of second antibody (nm) [5]: 1.85 nm | binding response of second antibody (nm) [6]: 2.03 nm | binding response of second antibody (nm) [7]: 1.97 nm | % max blocking [8]: 100% | IC50 [8]: 0.761 nM | binding response of second antibody (nm) [9]: 1.91 nm

B5: H4H2342P (antibody, human IgG4, V domains shown)
VH: EVQLLESGGGLVQPGGSLRLSCAASGFTFSTYAMSWVRQAPGKGLEWVSAIRGNGVNTYYGDSMKGRFTISRDNSKDTLYLQMNSLRAEDTAVYYCAKNKWELLVFEYWGQGTLVTVSS
VL: DIQMTQSPSSLSASVGDRVTITCRASQDISNYLAWYQQKPGKVPKLLIYAASTLQSGVPFRFSGSGSGTDFTLTISSLQPEDVATYYCQKYNSAPPFGPGTKVDIK
notes: human IgG4 Fc (H4H)
Amount of Antibody 1 bound (nm) [1]: 2.69 nm | binding response of second antibody (nm) [2]: 0.15 nm | binding response of second antibody (nm) [3]: 1.8 nm | binding response of second antibody (nm) [4]: 0.06 nm | binding response of second antibody (nm) [5]: 0.01 nm | binding response of second antibody (nm) [6]: -0.01 nm | binding response of second antibody (nm) [7]: 0.06 nm | % max blocking [8]: 97% | IC50 [8]: 1.08 nM | binding response of second antibody (nm) [9]: -0.01 nm

B6: H4H2294S (antibody, human IgG4, V domains shown)
VH: EVQLVESGGGLVQPGGSLRLSCAASGFTFSSYAMSWVRQAPGKGLEWVSVISGSGGSTYYADAVKGRFTISRDNSKHTLYLQMNSLRAEDTAVYYCTKPSSYSSSNFYYGMDVWGQGSTVTVSS
VL: DIQLTQSPSSVSASVGDRVTITCRASQGISSWLAWYQQKPGKAPKLLIYAASSLQSGVPSRFSGSGSGTDFTLTISSLQPEDFATYYCQQTNSFPFPFGPGTKVDIK
notes: human IgG4 Fc (H4H)
Amount of Antibody 1 bound (nm) [1]: 2.91 nm | binding response of second antibody (nm) [2]: 0.29 nm | binding response of second antibody (nm) [3]: 2 nm | binding response of second antibody (nm) [4]: 0.23 nm | binding response of second antibody (nm) [5]: 0.02 nm | binding response of second antibody (nm) [6]: 0 nm | binding response of second antibody (nm) [7]: 0.16 nm | % max blocking [8]: 95% | IC50 [8]: 0.952 nM | binding response of second antibody (nm) [9]: 0 nm

B7: H4H2357S (antibody, human IgG4, V domains shown)
VH: EVQLVESGGGLVQPGGSLRLSCAASTFTFSSYAMTWVRQAPGKGLEWVSSISGSGDSTYYADSVKGRFTISRDNSKNTLFLQMNSLRAEDTAVYYCAKKDGPGRYYVRYGMDVWGQGTTVTVSS
VL: DIQMTQSPSSVSASVGDRVTITCRASQGISSWLAWYQQKPGKAPKLLIYTTSSLQSGVPSRFSGSGSGTDFTLTISSLQPEDFATYYCQQANSFPLTFGGGTKVDIK
notes: human IgG4 Fc (H4H)
Amount of Antibody 1 bound (nm) [1]: 2.82 nm | binding response of second antibody (nm) [2]: 0.32 nm | binding response of second antibody (nm) [3]: 2.23 nm | binding response of second antibody (nm) [4]: 0.25 nm | binding response of second antibody (nm) [5]: 0.05 nm | binding response of second antibody (nm) [6]: 0 nm | binding response of second antibody (nm) [7]: 0.16 nm | % max blocking [8]: 86% | IC50 [8]: 3.28 nM | binding response of second antibody (nm) [9]: 0.04 nm
